In one data set the test system is SH‐SY5Y cells. Put plainly: MTT cell viability assay. It is filed as cell-based, human. To be noted: MTT, n = 4. The protocol: For the cell viability experiments, 96‐well plates were seeded with 10 000 cells/well. After 24 h, cells were treated with 30 μM Aβ25−35 aggregated for 72 h in the presence or in the absence of 0.12 μM of ERp57 or GST recombinant proteins (in a 1:250 ratio), in a final volume of 150 μl per well. Plates were incubated for 24 h in an incubator at 37°C, 5% of CO2, and 99% RH. Thereafter, 20 μl of (3‐[4,5‐Dimethylthiazol‐2‐yl]‐2,5‐Diphenyltetrazolium Bromide) (MTT) dye (stock solution 5 mg/ml in PBS) (catalog number #M2003) was added to the wells and incubated for additional 2 h at 37°C and 5% CO2. Water‐insoluble formazan crystals were dissolved in 100 μl of DMSO (catalog number #472301). For spectrophotometric measurements, Appliscan® plate reader (Thermo scientific) was used at the wavelength 570 nm, with reference set at 690 nm.

A further data set relates to full‐length APP. The conditions noted are these: permeabilized cells; ref Selivanova et al., [2007]; cited from earlier work. The source says: (§1) As previously reported (Williams, [2006]), it is known that ERp57 together with calreticulin and calnexin forms a complex capable of interacting with glycoproteins, including APP, at the […] level, and therefore it can be hypothesized that the contact regions between ERp57 and APP are maintained at least in part also by Aβ, despite the cuts suffered by the secretases.

The test system of a further data set is c99 fragment of APP. To be noted: c99 generated by β-secretase; ref Selivanova et al., [2007]; cited from earlier work.
Source text: as §1

Another data set relates to Aβ peptide. The conditions noted are these: cerebrospinal fluid of healthy people; ref Erickson et al., [2005]; cited from earlier work. An excerpt: ERp57 is an endoplasmic reticulum disulfide isomerase which modulates folding of newly synthesized glycoproteins by recognizing and interacting with peptides or incorrectly folded proteins, thereby promoting formation of disulfide bonds and correct protein folding (Torres et al., [2015]). Conversely, Aβ is a small peptide that, because of its intrinsic characteristics, tends to aggregate and to escape the ER‐associated degradation process (ERAD) (Holtzman, [2013]). Eventually, monomeric Aβ is released out of the cell and begins its slow aggregation into fibrils that will form the template for ...

A further data set has as its system pre‐aggregated Aβ25−35. Put plainly: Thioflavin-T assay, reversal of pre-aggregated Aβ25−35. It is filed as biochemical. To be noted: Aβ25−35 aggregated alone 24 h, then 72 h with increasing concentrations of ERp57; n = 3. The protocol: Thioflavin‐T assay was used to assess the aggregation of the Aβ25−35. Thioflavin‐T (catalog number #T3516) was prepared in glycine buffer (0.05 M, pH 8.5) (catalog number #G8898), to a final concentration of 5 μM, in order to be saturated by Aβ25−35 (10 μM). Aβ25−35 was aggregated either alone or in the presence of 0.04 μM ERp57 or GST recombinant protein (in a 1:250 ratio). The assay was performed using a spectrofluorometer Spex Fluoromax® at 25°C; the excitation wavelength was set at 440 nm (5 nm band width) and the fluorescence was measured between 450 and 520 nm (5 nm band width) (Francioso et al., [2020]).
Having ascertained the ability of ERp57 to block the aggregation process, we wondered if the protein was able to reverse a preformed amyloid fibril into oligomeric/monomeric forms. To understand this, we aggregated Aβ25−35 alone for 24 h and then incubated it for 72 h in the presence of increasing concentrations of ERp57, assessing every 24 h the state of aggregation by thioflavin T assay (Figure 5c). […] Probably this phenomenon could be because of the fact that the presence of a protein capable of interacting with Aβ25−35 (given the previous experiments) can favor to the maintenance of Aβ25−35 in solution, facilitating the process of aggregation. […]

Another data set concerns Aβ25−35. Put plainly: Thioflavin-T assay, Aβ25−35 aggregation (co-incubation). The data set is classed as biochemical. To be noted: 1:250 protein/Aβ25−35 molar ratio (4 μM / 1 mM), up to 72 h, 4°C, ThT read at 485 nm, n = 6. The protocol:
The amyloid peptide Aβ25−35 was synthesized by conventional solid‐phase chemistry (Atherton & Sheppard, [1990]), and stored at −20°C. The peptide was resuspended in 1,1,1,3,3,3‐Hexafluoro‐2‐propanol (Sigma®, catalog number #105228), incubated for 1 h with gentle shaking at 4°C, then aliquoted and dried in speedVac for 20 min. The aliquots were stored under a vacuum glass bell. The day before being used, aliquots were resuspended in phosphate‐buffered saline (PBS) at a final concentration of 1 mM, incubated in a ultrasonic bath on ice for 30 min to induce aggregation, followed by gentle shaking at 4°C overnight. Aβ25−35 was diluted in culture medium at a final concentration of 30 μM for cell treatments. Aggregation of Aβ25−35 in the presence of ERp57 was obtained as follows: dried aliquots of Aβ25−35 were resuspended in PBS. […]
Thioflavin‐T assay was used to assess the aggregation of the Aβ25−35. […] The assay was performed using a spectrofluorometer Spex Fluoromax® at 25°C; the excitation wavelength was set at 440 nm (5 nm band width) and the fluorescence was measured between 450 and 520 nm (5 nm band width) (Francioso et al., [2020]).

A further data set deals with α‐synuclein. To be noted: 1:50 molar ratio; ref Serrano et al., [2020]; cited from earlier work. The source says: We thus hypothesize that the mechanism by which ERp57 exerts its neuroprotective action resides in ERp57 impairment of peptide aggregation, rather than in disaggregation of existing fibrils. The inhibition of the aggregation was induced by low amounts of ERp57 protein, present in the reaction mixture in a very low molar ratio compared to the peptide (1:250), in line with the experiments conducted by Serr ...

“Also recorded” adds a separate entry of the source.

B1: ERp57: thiol oxidoreductase with Protein Disulfide Isomerase activity; human recombinant PDIA3 expressed in E. coli (protein)
chain: SDVLELTDDNFESRISDTGSAGLMLVEFFAPWCGHCKRLAPEYEAAATRLKGIVPLAKVDCTANTNTCNKYGVSGYPTLKIFRDGEEAGAYDGPRTADGIVSHLKKQAGPASVPLRTEEEFKKFISDKDASIVGFFDDSFSEAHSEFLKAASNLRDNYRFAHTNVESLVNEYDDNGEGIILFRPSHLTNKFEDKTVAYTEQKMTSGKIKKFIQENIFGICPHMTEDNKDLIQGKDLLIAYYDVDYEKNAKGSNYWRNRVMMVAKKFLDAGHKLNFAVASRKTFSHELSDFGLESTAGEIPVVAIRTAKGEKFVMQEEFSRDGKALERFLQDYFDGNLKRYLKSEPIPESNDGPVKVVVAENFDEIVNNENKDVLIEFYAPWCGHCKNLEPKYKELGEKLSKDPNIVIAKMDATANDVPSPYEVRGFPTIYFSPANKKLNPKKYEGGRELSDFISYLQREATNPPVIQEEKPKKKKKAQEDL
As to B1, in the data set with SH‐SY5Y cells (30 μM Aβ25−35 aggregated 72 h with 0.12 μM protein (1:250), 24 h treatment), the “cell viability (with Aβ25−35)” value was “counteracts the toxic effects of Aβ25−35 and restores cellular viability; also recorded: significant increase in cell viability; also recorded: their viability was preserved”. Further, the “cell viability (protein alone)” value in the data set with SH‐SY5Y cells (protein alone, without Aβ25−35, 24 h) was “no effect on cell viability”. In addition, the “interaction with full-length APP” value in the data set on full‐length APP is reported as “interacts with full‐length APP”. Moreover, in the data set on c99 fragment of APP, the “interaction with c99 fragment of APP” value is given as “does not interact with the c99 fragment of APP”. Further, in the data set with Aβ peptide, the “complex of ERp57 with Aβ” value is “linked to Aβ in the cerebrospinal fluid of healthy people”. In the data set on pre‐aggregated Aβ25−35, the “ThT fluorescence intensity of pre-aggregated Aβ25−35” value was “increased in a dose‐dependent manner” and the “reversal of preformed amyloid” value is recorded as “not able to reverse the amyloid aggregation; also recorded: not able to disassemble pre‐aggregated Aβ25−35; also recorded: fails to disaggregate a fibril”. The “effect on Aβ25−35 aggregation (ThT fluorescence)” value in the data set on Aβ25−35 was “a marked reduction in the fluorescence signal; also recorded: completely blocks this process; also recorded: strongly reduced the aggregation of the peptide”. Also, in the data set with α‐synuclein, the “effect on α-synuclein aggregation” value is “able to reduce the aggregation of α‐synuclein in a very efficient manner”.

(Values after article PMC9543391, “ERp57 chaperon protein protects neuronal cells from Aβ‐induced toxicity” (Journal of Neurochemistry, 2022).)
